Measured values reported in publication doi:10.1101/2022.10.18.512811 (bioRxiv, 2022).
Like-named read-outs stand apart in the source and are kept apart here. One block for each molecule: values may come before it.

What was measured:
[1] = molecular target: His-tagged NlpE N-terminal domain (E. coli); assay: cross-linking
[2] = molecular target: the molecule itself; assay: dimer band on denaturing SDS-PAGE
[3] = molecular target: the molecule itself; assay: dimer band on denaturing SDS-PAGE; remark: listed apart in the source

- stoichiometry N [1]: 2
Molecule: His-tagged NlpE N-terminal domain (domain or fragment)

B1: C-terminally His-tagged WT NlpE expressed from pTrc99A (natural protein, E. coli, UniProt P40710 21-236, looked up)
chain: CNNRAEVDTLSPAQAAELKPMPQSWRGVLPCADCEGIETSLFLEKDGTWVMNERYLGAREEPSSFASYGTWARTADKLVLTDSKGEKSYYRAKGDALEMLDREGNPIESQFNYTLEAAQSSLPMTPMTLRGMYFYMADAATFTDCATGKRFMVANNAELERSYLAARGHSEKPVLLSVEGHFTLEGNPDTGAPTKVLAPDTAGKFYPNQDCSSLGQ
modifications: lipid-modified N-terminal cysteine (Cys21)
- stoichiometry N [2]: 2

B2: purified, soluble, C-terminal His×6-tagged NlpE (natural protein, E. coli, UniProt P40710 21-236, looked up)
chain: B1 chain
- stoichiometry N [3]: 2
